Data set [1] deals with the molecule itself. As to the kind of experiment: cryo-EM structure; RGα2/RGβ/κB-Ras2 complex from Expi293F, FLAG affinity and Superose 6 in 20 mM HEPES pH 7.5, 150 mM NaCl, 2 mM MgCl2, 1 mM TCEP; single particle analysis of the half-particle, 3.8 Å overall.
The target of data set [2] is T1, RalGAPα2 (RGα2), full length, co-expressed in Expi293F and purified by FLAG affinity (UniProt Q2PPJ7 1-1873).
T1 construct: RalGAPα2, catalytic α-subunit of the RalGAP2 complex; catalytic asparagine N1742; residues 1-73 not resolved in the map; residue numbers (N1742, R1738, N943) are used together with human patient variants; also called RGα2^fl; source: Expi293F cells, transfected, purified (M2 anti-FLAG beads, 3xFLAG peptide elution; Superose 6 for cryo-EM)
T1 sequence (Q2PPJ7 whole entry, the tested form may be a part): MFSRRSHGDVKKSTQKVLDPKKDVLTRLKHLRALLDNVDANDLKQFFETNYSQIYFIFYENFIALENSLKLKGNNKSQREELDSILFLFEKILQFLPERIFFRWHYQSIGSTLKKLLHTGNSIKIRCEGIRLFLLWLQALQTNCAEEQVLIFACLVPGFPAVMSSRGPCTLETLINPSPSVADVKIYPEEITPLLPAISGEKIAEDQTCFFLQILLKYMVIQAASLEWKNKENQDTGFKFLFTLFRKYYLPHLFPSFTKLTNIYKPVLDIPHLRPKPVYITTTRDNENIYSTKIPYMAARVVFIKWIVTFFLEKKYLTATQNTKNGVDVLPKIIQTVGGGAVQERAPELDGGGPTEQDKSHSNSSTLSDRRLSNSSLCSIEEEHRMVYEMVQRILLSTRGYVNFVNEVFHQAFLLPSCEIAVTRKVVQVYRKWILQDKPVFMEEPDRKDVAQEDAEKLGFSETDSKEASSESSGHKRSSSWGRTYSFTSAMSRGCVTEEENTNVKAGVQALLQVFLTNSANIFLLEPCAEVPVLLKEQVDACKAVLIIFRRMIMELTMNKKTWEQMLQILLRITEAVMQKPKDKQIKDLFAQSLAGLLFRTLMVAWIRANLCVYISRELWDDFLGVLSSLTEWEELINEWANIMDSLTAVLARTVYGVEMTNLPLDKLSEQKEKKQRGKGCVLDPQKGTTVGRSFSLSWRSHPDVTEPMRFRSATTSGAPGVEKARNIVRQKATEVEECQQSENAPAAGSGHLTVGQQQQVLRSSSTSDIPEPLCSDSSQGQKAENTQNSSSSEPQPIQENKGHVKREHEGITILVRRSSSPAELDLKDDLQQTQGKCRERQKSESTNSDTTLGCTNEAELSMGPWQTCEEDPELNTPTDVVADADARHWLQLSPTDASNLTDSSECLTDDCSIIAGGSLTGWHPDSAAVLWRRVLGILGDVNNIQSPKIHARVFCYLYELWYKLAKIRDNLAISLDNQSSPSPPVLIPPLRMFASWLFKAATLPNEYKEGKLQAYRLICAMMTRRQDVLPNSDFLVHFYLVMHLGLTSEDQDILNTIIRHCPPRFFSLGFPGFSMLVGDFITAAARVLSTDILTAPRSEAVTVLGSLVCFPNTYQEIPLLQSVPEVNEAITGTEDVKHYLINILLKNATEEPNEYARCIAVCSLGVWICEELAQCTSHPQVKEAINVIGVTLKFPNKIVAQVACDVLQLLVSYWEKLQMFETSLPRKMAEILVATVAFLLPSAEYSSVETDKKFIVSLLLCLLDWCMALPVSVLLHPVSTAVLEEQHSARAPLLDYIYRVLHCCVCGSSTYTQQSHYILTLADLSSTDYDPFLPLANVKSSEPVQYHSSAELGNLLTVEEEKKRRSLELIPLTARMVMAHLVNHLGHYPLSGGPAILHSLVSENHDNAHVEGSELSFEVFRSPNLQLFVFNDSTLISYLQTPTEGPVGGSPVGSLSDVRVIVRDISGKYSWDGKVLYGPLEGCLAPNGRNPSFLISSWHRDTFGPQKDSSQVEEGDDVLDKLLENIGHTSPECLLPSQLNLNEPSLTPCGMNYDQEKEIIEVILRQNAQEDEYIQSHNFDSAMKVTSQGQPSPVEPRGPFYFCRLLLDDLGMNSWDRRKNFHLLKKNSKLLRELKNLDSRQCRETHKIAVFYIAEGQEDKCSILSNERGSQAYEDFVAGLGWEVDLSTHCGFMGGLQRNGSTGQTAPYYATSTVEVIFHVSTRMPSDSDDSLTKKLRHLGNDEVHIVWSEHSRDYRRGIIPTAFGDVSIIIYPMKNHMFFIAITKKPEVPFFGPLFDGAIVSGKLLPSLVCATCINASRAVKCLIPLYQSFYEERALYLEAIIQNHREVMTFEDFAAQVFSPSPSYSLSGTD
Described as above. The note with it: both partners purified.

B1: RalGAPβ (RGβ), full length, co-expressed in Expi293F and co-purified with FLAG-RGα2 (natural protein, UniProt Q86X10 1-1494, looked up)
chain: MYSEWRSLHLVIQNDQGHTSVLHSYPESVGREVANAVVRPLGQVLGTPSVAGSENLLKTDKEVKWTMEVICYGLTLPLDGETVKYCVDVYTDWIMALVLPKDSIPLPVIKEPNQYVQTILKHLQNLFVPRQEQGSSQIRLCLQVLRAIQKLARESSLMARETWEVLLLFLLQINDILLAPPTVQGGIAENLAEKLIGVLFEVWLLACTRCFPTPPYWKTAKEMVANWRHHPAVVEQWSKVICALTSRLLRFTYGPSFPAFKVPDEDASLIPPEMDNECVAQTWFRFLHMLSNPVDLSNPAIISSTPKFQEQFLNVSGMPQELNQYPCLKHLPQIFFRAMRGISCLVDAFLGISRPRSDSAPPTPVNRLSMPQSAAVSTTPPHNRRHRAVTVNKATMKTSTVSTAHASKVQHQTSSTSPLSSPNQTSSEPRPLPAPRRPKVNSILNLFGSWLFDAAFVHCKLHNGINRDSSMTAITTQASMEFRRKGSQMSTDTMVSNPMFDASEFPDNYEAGRAEACGTLCRIFCSKKTGEEILPAYLSRFYMLLIQGLQINDYVCHPVLASVILNSPPLFCCDLKGIDVVVPYFISALETILPDRELSKFKSYVNPTELRRSSINILLSLLPLPHHFGTVKSEVVLEGKFSNDDSSSYDKPITFLSLKLRLVNILIGALQTETDPNNTQMILGAMLNIVQDSALLEAIGCQMEMGGGENNLKSHSRTNSGISSASGGSTEPTTPDSERPAQALLRDYALNTDSAAGLLIRSIHLVTQRLNSQWRQDMSISLAALELLSGLAKVKVMVDSGDRKRAISSVCTYIVYQCSRPAPLHSRDLHSMIVAAFQCLCVWLTEHPDMLDEKDCLKEVLEIVELGISGSKSKNNEQEVKYKGDKEPNPASMRVKDAAEATLTCIMQLLGAFPSPSGPASPCSLVNETTLIKYSRLPTINKHSFRYFVLDNSVILAMLEQPLGNEQNDFFPSVTVLVRGMSGRLAWAQQLCLLPRGAKANQKLFVPEPRPVPKNDVGFKYSVKHRPFPEEVDKIPFVKADLSIPDLHEIVTEELEERHEKLRSGMAQQIAYEIHLEQQSEEELQKRSFPDPVTDCKPPPPAQEFQTARLFLSHFGFLSLEALKEPANSRLPPHLIALDSTIPGFFDDIGYLDLLPCRPFDTVFIFYMKPGQKTNQEILKNVESSRTVQPHFLEFLLSLGWSVDVGRHPGWTGHVSTSWSINCCDDGEGSQQEVISSEDIGASIFNGQKKVLYYADALTEIAFVVPSPVESLTDSLESNISDQDSDSNMDLMPGILKQPSLTLELFPNHTDNLNSSQRLSPSSRMRKLPQGRPVPPLGPETRVSVVWVERYDDIENFPLSELMTEISTGVETTANSSTSLRSTTLEKEVPVIFIHPLNTGLFRIKIQGATGKFNMVIPLVDGMIVSRRALGFLVRQTVINICRRKRLESDSYSPPHVRRKQKITDIVNKYRNKQLEPEFYTSLFQEVGLKNCSS
notes: RalGAPβ, common regulatory β-subunit of the RalGAP complexes; In the RalGAP tetramer two RGα2/RGβ heterodimers are joined by two RGβ; also called RGβ^fl; RGβ^WT; source: Expi293F cells, transfected, co-purified with RGα2 (M2 anti-FLAG beads; Superose 6 for cryo-EM)
As for B1, the binding result in data set [1] and in data set [2] was “binds” throughout.

The record behind these values is article PMC12311180, “Structure and mechanism of the RalGAP tumor suppressor complex” (Nature Communications, 2025).
